This is an account of results in article PMC10462845 (Neoplasia (New York, N.Y.), 2023).

Holding throughout (experiment): MST
Assay [1] deals with T1, C-terminal BTB/POZ containing fragment of KCTD1 (BTB/POZ1) (UniProt Q719H9 1-257).
T1 sequence: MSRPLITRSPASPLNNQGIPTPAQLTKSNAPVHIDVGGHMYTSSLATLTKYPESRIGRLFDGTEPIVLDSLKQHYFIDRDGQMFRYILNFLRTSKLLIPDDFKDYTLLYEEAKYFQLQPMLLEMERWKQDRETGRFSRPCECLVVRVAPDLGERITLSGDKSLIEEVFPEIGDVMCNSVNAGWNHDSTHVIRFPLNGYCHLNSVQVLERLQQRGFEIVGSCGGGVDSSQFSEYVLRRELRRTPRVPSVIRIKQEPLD

In assay [2] the target is BTB/POZ domain of KCTD15 (BTB/POZ15) (UniProt Q96SI1).
Sequence of BTB/POZ domain of KCTD15 (BTB/POZ15) (Q96SI1 whole entry, the tested form may be a part): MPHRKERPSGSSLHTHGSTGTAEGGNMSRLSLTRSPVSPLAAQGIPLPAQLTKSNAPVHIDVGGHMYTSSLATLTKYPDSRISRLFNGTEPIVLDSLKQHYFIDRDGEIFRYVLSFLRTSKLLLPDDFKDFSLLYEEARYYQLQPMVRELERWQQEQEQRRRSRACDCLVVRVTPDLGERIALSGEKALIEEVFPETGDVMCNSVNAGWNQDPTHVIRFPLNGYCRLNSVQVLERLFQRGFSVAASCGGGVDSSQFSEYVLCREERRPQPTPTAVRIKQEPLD
The target in assay [3] is C-terminal BTB/POZ containing fragment of KCTD1 (BTB/POZ1) (UniProt Q719H9).

B1: BTB/POZ domain of KCASH1 (KCTD11) (BTB/POZ11) (domain or fragment)
chain: GPVTLNVGGTLYSTTLETLTRFPDSMLGAMFRAGTPMPPNLNSQGGGHYFIDRDGKAFRHILNFLRLGRLDLPRGYGETALLRAEADFYQIRPLLDALRELEASQG
Broadly, the Kd is a measure of binding affinity in units of concentration. Lower therefore signals higher affinity. In assay [1], B1 registered a Kd of 800 ± 100 nM.

B2: KCASH2 (KCTD21), full length, recombinant (natural protein)
chain: MSDPITLNVGGKLYTTSLATLTSFPDSMLGAMFSGKMPTKRDSQGNCFIDRDGKVFRYILNFLRTSHLDLPEDFQEMGLLRREADFYQVQPLIEALQEKEVELSKAEKNAMLNITLNQRVQTVHFTVREAPQIYSLSSSSMEVFNANIFSTSCLFLKLLGSKLFYCSNGNLSSITSHLQDPNHLTLDWVANVEGLPEEEYTKQNLKRLWVVPANKQINSFQVFVEEVLKIALSDGFCIDSSHPHALDFMNNKIIRLIRYR
For B2, the values for the Kd in assay [2] and in assay [3] were 6.6 µM and 3.9 µM, respectively.
